Reference: article doi:10.1101/2020.12.15.422916
Values belong to the substance of their own block, whether it stands above or below them.

Columns and labels:
[1] = molecular target: hexameric Aβ from CHO cells transfected with C99 carrying the Arctic (E22G) FAD mutation (human); assay: SDS-PAGE and western blot of SDS-stable assemblies
[2] = molecular target: hexameric Aβ from CHO cells transfected with C99 carrying the Italian (E22K) FAD mutation (human); assay: SDS-PAGE and western blot of SDS-stable assemblies
[3] = molecular target: hexameric Aβ from CHO cells transfected with C99 carrying the Iowa (D23N) FAD mutation (human); assay: SDS-PAGE and western blot of SDS-stable assemblies
[4] = molecular target: hexameric Aβ from CHO cells transfected with C99 carrying the Dutch (E22Q) FAD mutation (human); assay: SDS-PAGE and western blot of SDS-stable assemblies
[5] = molecular target: assembly-impaired variant of Aβ42 from CHO cells transfected with vC42 (F19S, G37D) (human); assay: SDS-PAGE and western blot of SDS-stable assemblies
[6] = molecular target: hexameric Aβ from CHO cells transfected with C99 carrying the Flemish (A21G) FAD mutation (human); assay: SDS-PAGE and western blot of SDS-stable assemblies
[7] = molecular target: C99-derived hexameric Aβ42 (cell-derived, from CHO cells transfected with C99) (human) (UniProt P05067); assay: SDS-PAGE and western blot of SDS-stable assemblies
[8] = molecular target: C99-derived hexameric Aβ42 (cell-derived, from CHO cells transfected with C99) (human) (UniProt P05067); assay: GELFrEE 8100 electrophoretic fractionation with western blot

Substance: hexameric Aβ from CHO cells transfected with C99 carrying the Italian (E22K) FAD mutation (peptide)
stoichiometry N [2]: 6

Substance: hexameric Aβ from CHO cells transfected with C99 carrying the Iowa (D23N) FAD mutation (peptide)
stoichiometry N [3]: 6

Substance: hexameric Aβ from CHO cells transfected with C99 carrying the Dutch (E22Q) FAD mutation (peptide)
stoichiometry N [4]: 6

Substance: assembly-impaired variant of Aβ42 from CHO cells transfected with vC42 (F19S, G37D) (peptide)
stoichiometry N [5]: 2

Other lines, results leading:

stoichiometry N [1]: 6
Substance: hexameric Aβ from CHO cells transfected with C99 carrying the Arctic (E22G) FAD mutation (peptide)

stoichiometry N [6]: 6
Substance: hexameric Aβ from CHO cells transfected with C99 carrying the Flemish (A21G) FAD mutation (peptide)

stoichiometry N [7]: 6
stoichiometry N [8]: 6
Substance: C99-derived hexameric Aβ42 (cell-derived, from CHO cells transfected with C99) (from UniProt P05067 672-770) (peptide)
